{"source": "paper PMC2764441", "key": {"[1]": {"target": "T1, NF-κB p65 (recombinant p65) (not stated (human or murine protein purified)), Q04207", "T1 chain": "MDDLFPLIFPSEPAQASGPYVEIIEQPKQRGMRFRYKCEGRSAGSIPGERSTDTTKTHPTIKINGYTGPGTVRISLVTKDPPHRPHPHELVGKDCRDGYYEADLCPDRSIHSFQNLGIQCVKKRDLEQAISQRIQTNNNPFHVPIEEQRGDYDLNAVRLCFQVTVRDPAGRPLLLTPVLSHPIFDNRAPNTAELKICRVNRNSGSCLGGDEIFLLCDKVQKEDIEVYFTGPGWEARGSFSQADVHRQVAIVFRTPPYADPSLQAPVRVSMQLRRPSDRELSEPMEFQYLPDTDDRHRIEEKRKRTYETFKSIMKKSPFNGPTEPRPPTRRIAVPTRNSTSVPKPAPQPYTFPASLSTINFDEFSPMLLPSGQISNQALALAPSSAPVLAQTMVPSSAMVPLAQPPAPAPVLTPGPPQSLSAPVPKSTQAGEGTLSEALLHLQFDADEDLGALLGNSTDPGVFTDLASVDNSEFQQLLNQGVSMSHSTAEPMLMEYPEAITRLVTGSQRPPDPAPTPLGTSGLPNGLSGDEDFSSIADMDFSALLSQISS", "assay": "cross-linking", "details": "remark: other sources report otherwise"}, "[2]": {"target": "NF-kB p65 homodimer, human (human, UniProt Q04206 19-306)", "sequence (Q04206 19-306)": "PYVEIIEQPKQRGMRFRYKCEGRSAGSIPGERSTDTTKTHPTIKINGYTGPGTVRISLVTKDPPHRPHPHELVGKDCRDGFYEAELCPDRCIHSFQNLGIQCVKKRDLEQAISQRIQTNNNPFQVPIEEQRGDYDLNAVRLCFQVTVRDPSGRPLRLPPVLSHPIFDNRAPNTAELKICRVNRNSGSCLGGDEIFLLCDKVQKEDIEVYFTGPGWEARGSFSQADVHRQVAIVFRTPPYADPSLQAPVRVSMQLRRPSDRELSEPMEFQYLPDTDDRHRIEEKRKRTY", "assay": "EMSA"}, "[3]": {"target": "NF-kB p65 homodimer, murine (mouse, UniProt Q04207 19-306)", "assay": "EMSA"}, "[4]": {"target": "T2, NF-κB p50 (recombinant human p50) (human), P19838", "T2 chain": "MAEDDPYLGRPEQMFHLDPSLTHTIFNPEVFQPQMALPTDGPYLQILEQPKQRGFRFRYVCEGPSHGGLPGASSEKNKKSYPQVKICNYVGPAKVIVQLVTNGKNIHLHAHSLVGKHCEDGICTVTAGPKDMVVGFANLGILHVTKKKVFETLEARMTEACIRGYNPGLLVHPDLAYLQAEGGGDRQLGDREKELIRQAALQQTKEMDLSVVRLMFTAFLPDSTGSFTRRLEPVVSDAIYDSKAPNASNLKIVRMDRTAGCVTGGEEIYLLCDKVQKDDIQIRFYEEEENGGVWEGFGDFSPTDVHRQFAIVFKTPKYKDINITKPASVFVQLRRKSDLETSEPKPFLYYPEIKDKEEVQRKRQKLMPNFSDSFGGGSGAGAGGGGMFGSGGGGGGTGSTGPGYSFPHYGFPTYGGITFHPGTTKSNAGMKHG", "assay": "cross-linking", "details": "remark: other sources report otherwise"}}, "note": "Where “and” joins values, the source holds several entries; their conditions need not be identical. Equal entries are not always repeated."}
{"binder": "NF-κB p65 (recombinant p65), Q04207 1-549 (natural protein) MDDLFPLIFPSEPAQASGPYVEIIEQPKQRGMRFRYKCEGRSAGSIPGERSTDTTKTHPTIKINGYTGPGTVRISLVTKDPPHRPHPHELVGKDCRDGYYEADLCPDRSIHSFQNLGIQCVKKRDLEQAISQRIQTNNNPFHVPIEEQRGDYDLNAVRLCFQVTVRDPAGRPLLLTPVLSHPIFDNRAPNTAELKICRVNRNSGSCLGGDEIFLLCDKVQKEDIEVYFTGPGWEARGSFSQADVHRQVAIVFRTPPYADPSLQAPVRVSMQLRRPSDRELSEPMEFQYLPDTDDRHRIEEKRKRTYETFKSIMKKSPFNGPTEPRPPTRRIAVPTRNSTSVPKPAPQPYTFPASLSTINFDEFSPMLLPSGQISNQALALAPSSAPVLAQTMVPSSAMVPLAQPPAPAPVLTPGPPQSLSAPVPKSTQAGEGTLSEALLHLQFDADEDLGALLGNSTDPGVFTDLASVDNSEFQQLLNQGVSMSHSTAEPMLMEYPEAITRLVTGSQRPPDPAPTPLGTSGLPNGLSGDEDFSSIADMDFSALLSQISS", "values": [{"measurement": "stoichiometry N", "setting": "[1]", "value": 2}]}
{"binder": "R1 anti-p65 RNA aptamer (structured_RNA) RNA: GAAGCUUACAAGAAGGACAGCACGAAUAAAACCUGCGUAAAUCCGCCCCAUUUGUGUAAGGGUAGUGGGUCGAAUUCCGCUCA", "values": [{"measurement": "binding result", "setting": "[2]", "value": "binds"}, {"measurement": "Kd", "setting": "[3]", "value": "38 ± 20", "unit": "nM"}]}
{"binder": "NF-κB p50 (recombinant human p50), P19838 1-433 (natural protein) MAEDDPYLGRPEQMFHLDPSLTHTIFNPEVFQPQMALPTDGPYLQILEQPKQRGFRFRYVCEGPSHGGLPGASSEKNKKSYPQVKICNYVGPAKVIVQLVTNGKNIHLHAHSLVGKHCEDGICTVTAGPKDMVVGFANLGILHVTKKKVFETLEARMTEACIRGYNPGLLVHPDLAYLQAEGGGDRQLGDREKELIRQAALQQTKEMDLSVVRLMFTAFLPDSTGSFTRRLEPVVSDAIYDSKAPNASNLKIVRMDRTAGCVTGGEEIYLLCDKVQKDDIQIRFYEEEENGGVWEGFGDFSPTDVHRQFAIVFKTPKYKDINITKPASVFVQLRRKSDLETSEPKPFLYYPEIKDKEEVQRKRQKLMPNFSDSFGGGSGAGAGGGGMFGSGGGGGGTGSTGPGYSFPHYGFPTYGGITFHPGTTKSNAGMKHG", "values": [{"measurement": "stoichiometry N", "setting": "[4]", "value": "2 and 4"}]}
